In test [1] the target is D3H44 light chain Q124E_V133G_S176D_T178E_T180E. The test can be described thus: LCCA (co-expression, SPR tag read-out), L1:L2 DNA 1:3 normalised to 1:1; competing light chain m7.
Test [2] deals with D3H44 light chain V133G_S176D_T178D_T180E. The description is as above.
The target in test [3] is D3H44 light chain Q124E_V133G_S176D_T178E_T180E. Description: LCCA (co-expression, SPR tag read-out), L1:L2 DNA 1:3 normalised to 1:1; competing light chain m8.
In test [4] the target is D3H44 light chain Q124E_V133G_S176D_T178D_T180E. The test is described as above.
Test [5] shares this target. Description: LCCA (co-expression, SPR tag read-out), L1:L2 DNA 1:3 normalised to 1:1; competing light chain m7.
The target of test [6] is tissue factor (TF) antigen (UniProt P13726). Description: SPR (ProteOn), Fab captured via anti-penta-His, TF injected, 1:1 fit; reference wild-type D3H44 Fab.
Test [7] shares this target. Description: SPR (ProteOn), Fab captured via anti-penta-His, TF injected, 1:1 fit.
For test [8] the target is unchanged. Description: SPR, His-captured Fab, TF as analyte; against wild-type D3H44 Fab; batch C (+). (In SPR one partner is held on a chip, and binding of the other changes the refractive index at the surface.)
For test [9] the target is unchanged. Description: SPR, His-captured Fab, TF as analyte, 1:1 fit; batch C (+).
Test [10] has the same target. Description: SPR, Fab captured on anti-penta-His, TF as analyte, 1:1 fit.
Test [11] shares this target. Description: SPR, Fab captured on anti-penta-His, TF as analyte; against wild-type D3H44 Fab.
Test [12] shares this target. Description: SPR (ProteOn XPR36), Fab captured on anti-penta His surface, TF injected, 1:1 fit.
The target is the same in test [13]. The test can be described thus: SPR (ProteOn XPR36), Fab captured on anti-penta His surface, TF injected, 1:1 fit; reference wild-type D3H44 Fab.
Test [14] deals with tissue factor (TF) antigen (human (from the antibody's name 'anti-human tissue factor'; not stated for the antigen lot in the assay)) (UniProt P13726). The test can be described thus: SPR (ProteOn XPR36), Fab captured on anti-penta His, TF analyte; against wild-type D3H44 Fab; batch C (+).
The target is the same in test [15]. Description: SPR (ProteOn XPR36): Fab captured via His tag on anti-penta His surface, TF injected, 1:1 fit; batch C (+).
Test [16] has as its target tissue factor (TF) antigen (UniProt P13726). The test can be described thus: SPR (ProteOn XPR36), Fab captured on anti-penta His surface, TF injected, 1:1 fit; batch C ('+'); reference wild-type D3H44 Fab.
The target is the same in test [17]. The test can be described thus: SPR (ProteOn XPR36), Fab captured on anti-penta His surface, TF injected, 1:1 fit; batch C ('+').
Test [18] has the same target. Description: SPR (ProteOn XPR36), Fab captured on anti-penta-His surface, TF injected as analyte, 1:1 fit; batch C (marked +).
Test [19] has the same target. The test can be described thus: SPR (ProteOn XPR36), Fab captured on anti-penta-His surface, TF injected as analyte, 1:1 fit; batch C (marked +); reference wild-type D3H44 Fab.
Test [20] has the same target. Description: SPR, Fab captured by anti-penta-His, TF injected, 1:1 fit; batch C (+).
Test [21] has the same target. The test can be described thus: SPR; log change of median KD against wild-type D3H44 Fab; batch C (+).

“And” between values parts separate entries of the source, which are not always exact repeats. Equal entries are not always repeated.

Turning to D3H44 Fab heavy chain L124E_K145M_Q179E, the H1L1:H1L2 normalized median ratio in test [1] and in test [2] was 6 parts of 100 each time.
Regarding D3H44 Fab heavy chain L124R_D146N_Q179K, the H2L2:H2L1 normalized median ratio was 89 parts of 100 in test [3] and 90 parts of 100 in test [1].
For the substance D3H44 Fab heavy chain L124R_S186R, the H2L2:H2L1 normalized median ratio in test [4] is 95 parts of 100; in test [5], 92 parts of 100.
In the case of “D3H44 Fab heterodimer (H1L1) of LCCA Set # 9397: H1 L124R_Q179K, L1 V133G_Q160E_S176D_T180E”, the change in median KD compared to wild type, -(log(KD design)-log(KD wt)) in test [6] was -0.08. The Kd – broadly, the equilibrium constant for the complex coming apart – in test [7] is 0.19 nM.
In the case of “D3H44 Fab heterodimer (H1L1) of LCCA Sets # 9120, 9121: H1 L124E_H172T, L1 V133G_N137K_S174R_S176R”, the change in median KD compared to wild type, -(log(KD design)-log(KD wt)) in [6] is 0.03 and 0.08. The substance also showed a Kd in test [7] of 0.13 nM.
In turn, “D3H44 Fab heterodimer (H1L1) of LCCA Sets # 9419, 9420, 9423, 9425, 9426: H1 L124R_Q179K, L1 V133G_S176D_T178E_T180E” had a change in median KD compared to wild type, -(log(KD design)-log(KD wt)) in test [6] of -0.16. Moreover, the Kd in test [7] came out at 0.23 nM.
Substance “D3H44 Fab heterodimer H1L1 of LCCA Set # 9813 (H1 Q39E_K145T_H172R_Q179E; L1 Q38R_S131K)” returned a Change in median values of KD compared to wild type (-(log(KD design)-log(KD wt))) in test [8] of -0.05 log. For the same substance, in test [9], the equilibrium dissociation constant (Kd) was determined as 0.18 nM.
On the same counts, the results for “D3H44 Fab heterodimer H1L1 of LCCA Set # 9848 and 9847 (H1 S186K; L1 Q124E_S176L_T180E)” are 0.03 log and 0.15 nM.
The like results for “D3H44 Fab heterodimer H1L1 of LCCA Set # 9885 and 9886 (H1 S186R; L1 Q124E_S176L_T180E)” were, in that order, -0.06 log and 0.18 nM.
“D3H44 Fab heterodimer, H1 L45P_L143E_K145T_Q179E / L1 P44F_Q124R_Q160K_T178R (H1L1 Fab of LCCA Set # 9754)” yielded a Kd in test [10] of 0.3 nM. In test [11], this substance came in with a change in median KD compared to wild type, -(log(KD design)-log(KD wt)) of -0.28.
In the case of “D3H44 Fab heterodimer, H1 L124A_L143F_Q179K / L1 Q124E_V133W_S176T_T178L_T180E (H1L1 Fab of LCCA Set # 9096, 9095 and 9094)”, the Kd in [10] was 0.17 nM. In [11], the change in median KD compared to wild type, -(log(KD design)-log(KD wt)) was -0.04.
Take “D3H44 Fab heterodimer, H1 L124R_Q179K / L1 Q124E_V133G_S176D_T178E_T180E (H1L1 Fab of LCCA Set # 9388)”: the Kd in test [12] came out at 0.22 nM. Besides, in test [13], the Change in median values of KD of h1l1 Fab heterodimer compared to wild type (-(log(KD design)-log(KD wt))) was -0.15.
“D3H44 Fab heterodimer, H1 L124R_Q179K / L1 Q124E_V133G_S176D_T178E_T180E (H1L1 Fab of LCCA Set # 9392, 9394, 9395, 9376, 9380 and 9384)” showed a Kd in test [10] of 0.22 nM. In addition, the change in median KD compared to wild type, -(log(KD design)-log(KD wt)) in test [11] is -0.15.
“D3H44 Fab heterodimer, H1 L124R_S186K / L1 Q124E_V133G_S176D_T178D_T180E (H1L1 Fab of LCCA Sets # 9451, 9459, 9460, 9461, 9449)”: the Kd in [12] worked out at 0.26 nM. Also, in test [13], the Change in median values of KD of h1l1 Fab heterodimer compared to wild type (-(log(KD design)-log(KD wt))) was -0.23.
The substance “D3H44 Fab heterodimer, H1 L124R_S186K / L1 V133G_S176D_T178D_T180E (H1L1 Fab of LCCA Set # 9471 and 9473)” came in with a Kd in test [10] of 0.18 nM. Further, the change in median KD compared to wild type, -(log(KD design)-log(KD wt)) in [11] was -0.07.
In [12], “D3H44 Fab heterodimer, H1 L124R_S186K / L1 V133G_S176D_T178D_T180E (H1L1 Fab of LCCA Sets # 9484, 9481, 9483)” registered a Kd of 0.18 nM. For the same substance, the Change in median values of KD of h1l1 Fab heterodimer compared to wild type (-(log(KD design)-log(KD wt))) in test [13] is -0.07.
With “D3H44 Fab heterodimer, H1 L124R_S186R / L1 V133G_S176D_T178E_T180E (H1L1 Fab of LCCA Sets # 9541, 9544, 9542)”, the dissociation constant (Kd) in test [12] stood at 0.22 nM. Also, the Change in median values of KD of h1l1 Fab heterodimer compared to wild type (-(log(KD design)-log(KD wt))) in [13] was -0.15.
“D3H44 Fab heterodimer, H1 Q39E_K145T_Q179E / L1 Q38R_S131K (H1L1 Fab of LCCA set 9814)” had a Change in median values of KD of h1l1 Fab heterodimer compared to wild type (-(log(KD design)-log(KD wt))) in test [14] of -0.01. Besides, in test [15], the dissociation constant (Kd) was determined as 0.16 nM.
On the same counts, the results for “D3H44 Fab heterodimer, H1 Q39E_L143E_K145T_H172R / L1 Q38R_Q124R_Q160K_T178R (H1L1 Fab of LCCA set 9818)” are -0.07 and 0.18 nM.
The like results for “D3H44 Fab heterodimer, H1 Q39E_L143E_K145T_H172R_Q179E / L1 Q38R_Q124R_Q160K_T178R (H1L1 Fab of LCCA set 9819)” were, in that order, 0.03 and 0.15 nM.
Turning to “D3H44 Fab heterodimer, H1 Q39R_H172R_S186R / L1 Q38E_Q124E_Q160E_T180E (H1L1 Fab of LCCA Set # 9824)”, the Change in median values of KD of h1l1 Fab heterodimer compared to wild type (-(log(KD design)-log(KD wt))) in [16] worked out at 0.03. The Kd in test [17] is 0.15 nM.
On to “D3H44 Fab heterodimer, H1 Q179K / L1 Q124E_S131T_T178F_T180E (H1L1 Fab of LCCA Sets # 9778, 9777)”, for which the Change in median values of KD of h1l1 Fab heterodimer compared to wild type (-(log(KD design)-log(KD wt))) in [16] came out at 0.13. In addition, the Kd in test [17] came out at 0.12 nM.
On the same counts, the results for “D3H44 Fab heterodimer, H1 Q179R / L1 S131E (H1L1 Fab of LCCA Set # 9984)” are 0 and 0.16 nM.
The like results for “D3H44 Fab heterodimer, H1 S186K / L1 Q124E_T178E_T180E (H1L1 Fab of LCCA Set # 9852)” were, in that order, 0.02 and 0.15 nM.
The substance “D3H44 H1L1 Fab heterodimer, H1 Q39E_L143E_K145T_Q179E, L1 Q38R_Q124R_Q160K_T178R” showed a Kd in test [18] of 0.2 nM. This substance also yielded a Change in median KD of h1l1 Fab heterodimer compared to wild type (-(log(KD design)-log(KD wt))) (log(KD) difference) in test [19] of -0.1.
On the same counts, the results for “D3H44 H1L1 Fab heterodimer, H1 Q39R_D146G_H172R_Q179K, L1 Q38E_Q124E_Q160E_T180E” are 0.07 nM and 0.38.
The like results for “D3H44 H1L1 Fab heterodimer, H1 Q39R_H172R_Q179K, L1 Q38E_Q124E_Q160E_T180E” were, in that order, 0.24 nM and -0.18.
Regarding “H1L1 Fab heterodimer of LCCA sets 9812 and 9811 (D3H44 Fab, H1 Q179R, L1 Q124E_T178E_T180E)”, the Kd in test [20] was determined as 0.16 nM. Besides, the Change in median values of KD of h1l1 Fab heterodimer compared to wild type (-(log(KD design)-log(KD wt))) in test [21] is -0.01 log units.
On the same counts, the results for “H1L1 Fab heterodimer of LCCA sets 9858, 9853, 9855, 9862, 9863 and 9860 (D3H44 Fab, H1 S186K, L1 Q124E_T180E)” are 0.06 nM and 0.46 log units.
